{"source": "patent US20260055171A1", "about": "(Regeneron, published 2026)", "key": {"hCD16a-Biotin": {"target": "T1, hCD16a-Biotin (human, UniProt P08637 17-208, biotin (site not stated))", "T1 construct": "also called CD16 (FcγRIIIa); CD16a (FcGRIIIa)", "T1 sequence (P08637 17-208 limits assumed)": "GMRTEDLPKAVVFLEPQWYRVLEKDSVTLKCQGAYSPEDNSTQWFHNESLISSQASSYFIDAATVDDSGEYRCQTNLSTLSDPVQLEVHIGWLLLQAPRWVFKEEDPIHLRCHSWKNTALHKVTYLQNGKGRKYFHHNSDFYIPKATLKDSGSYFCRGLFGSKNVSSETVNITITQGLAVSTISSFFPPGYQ", "assay": "binding kinetics on hCD16a-Biotin, signal (nm) against time (sec); platform not named", "protocol": "(§1) Binding affinity of VEGF antagonists to Fc receptors CD16 (FcγRIIIa), CD64 (FcγRI), and FcRn was evaluated using hCD16-biotin, hCD64-biotin, and hFcRn-β2M-biotin.\n(§2) For FcγRIIIa and FcγRI binding assessments, each construct was diluted 1:5 from a starting concentration of 50 nM, except Hex-REGN3 (IgG1) Mut1 PVA/P329A, which was evaluated only at the highest concentration. For FcRn assessments, each construct was diluted 1:5 from a starting concentration of 200 nM, except Hex-REGN3 (IgG1) Mut1 PVA/P329A, which was evaluated only at the highest concentration."}, "hFcRn-β2M-Biotin [1]": {"target": "T2, hFcRn-β2M-Biotin (human, UniProt P55899 24-297; P61769 21-119, biotin (site and chain not stated))", "T2 sequence (P55899 24-297 limits assumed, chain 1 of 2)": "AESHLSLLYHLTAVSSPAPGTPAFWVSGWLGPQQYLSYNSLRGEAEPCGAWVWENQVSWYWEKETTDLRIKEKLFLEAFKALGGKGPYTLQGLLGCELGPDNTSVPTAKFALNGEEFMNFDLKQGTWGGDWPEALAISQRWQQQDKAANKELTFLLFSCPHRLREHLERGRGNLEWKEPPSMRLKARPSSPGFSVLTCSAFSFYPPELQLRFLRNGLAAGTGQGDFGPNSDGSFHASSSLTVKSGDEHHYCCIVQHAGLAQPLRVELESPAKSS", "T2 sequence (P61769 21-119 limits assumed, chain 2 of 2)": "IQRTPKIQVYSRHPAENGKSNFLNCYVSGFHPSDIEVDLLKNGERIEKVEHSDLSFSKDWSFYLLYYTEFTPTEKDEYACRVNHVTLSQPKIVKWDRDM", "assay": "binding kinetics on hFcRn-β2M-Biotin, signal (nm) against time (sec); construct diluted 1:5 from 200 nM, concentrations not labelled on the sheet; platform not named", "protocol": "as §1, §2"}, "hCD64-Biotin [2]": {"target": "T3, hCD64-Biotin (human, UniProt P12314 16-288, limits assumed, biotin (site not stated))", "T3 construct": "also called CD64 (FcγRI); CD64 (FcGRI)", "T3 sequence (P12314 16-288 limits assumed)": "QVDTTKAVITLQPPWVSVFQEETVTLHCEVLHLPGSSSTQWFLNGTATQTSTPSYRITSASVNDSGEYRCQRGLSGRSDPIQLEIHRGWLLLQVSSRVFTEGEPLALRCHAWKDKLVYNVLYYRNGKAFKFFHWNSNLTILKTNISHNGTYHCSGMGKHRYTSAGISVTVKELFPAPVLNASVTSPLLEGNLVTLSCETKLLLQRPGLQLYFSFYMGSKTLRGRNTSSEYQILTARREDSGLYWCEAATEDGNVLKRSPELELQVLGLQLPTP", "assay": "binding kinetics on hCD64-Biotin, signal (nm) against time (sec); construct diluted 1:5 from 50 nM, concentrations not labelled on the sheet; platform not named", "protocol": "as §1, §2"}, "hCD64-Biotin [3]": {"target": "T3, hCD64-Biotin", "assay": "binding kinetics on hCD64-Biotin, instrument not named", "protocol": "as §1, §2"}, "hFcRn-β2M-Biotin [4]": {"target": "T2, hFcRn-β2M-Biotin", "assay": "binding kinetics on hFcRn-β2M-Biotin, instrument not named", "protocol": "as §1, §2"}, "hCD64-Biotin [5]": {"target": "T3, hCD64-Biotin", "assay": "binding kinetics on hCD64-Biotin, signal (nm) against time (sec); platform not named", "protocol": "as §1, §2"}}, "data": [{"binder": "Hex-REGN3 (IgG1) Mut2 LALAPG (Fc fusion, Hexameric VEGF antagonist designed as six dimers) SDTGRPFVEMYSEIPEIIHMTEGRELVIPCRVTSPNITVTLKKFPLDTLIPDGKRIIWDSRKGFIISNATYKEIGLLTCEATVNGHLYKTNYLTHRQTNTIIDVVLSPSHGIELSVGEKLVLNCTARTELNVGIDFNWEYPSSKHQHKKLVNRDLKTQSGSEMKKFLSTLTIDGVTRSDQGLYTCAASSGLMTKKNSTFVRVHEKDKTHTCPPCPAPEAAGGPSVFLFPPKPKDTLMCSRTPEVTCVVVDVSHEAPEVKFNWYVDGVEVHNAKTKPREEQYNSTYRVVSVLTVLHQDWLNGKEYKCKVSNKALGAGIEKTISKAKGQPREPQVYTLPPSRDELTKNQVSLTCLVKGFYPSDIAVEWESNGQPENNYKTTPPVLDSDGSFFLYSKLTVDKSRWQQGNVFSCSVMHEALHNHYTQKSLSLSPGKPTLYNVSLVMSDTAGTCY", "values": [{"measurement": "binding result", "setting": "hCD16a-Biotin", "result": "no binding (tested: 50 nM (not printed on the sheet))"}, {"measurement": "binding result", "setting": "hFcRn-β2M-Biotin [1]", "result": "binds"}, {"measurement": "binding result", "setting": "hCD64-Biotin [2]", "result": "binds"}]}, {"binder": "Hex-REGN3 (IgG1) Mut1 LALAPG (Fc fusion, Hexamer of six dimers (VEGFR1 domain 2 - VEGFR2 domain 3 - IgG1 Fc - IgM tailpiece); also called HEX-REGN3 (IgG1) LALAPG Mut1; hexameric Hex-REGN3) SDTGRPFVEMYSEIPEIIHMTEGRELVIPCRVTSPNITVTLKKFPLDTLIPDGKRIIWDSRKGFIISNATYKEIGLLTCEATVNGHLYKTNYLTHRQTNTIIDVVLSPSHGIELSVGEKLVLNCTARTELNVGIDFNWEYPSSKHQHKKLVNRDLKTQSGSEMKKFLSTLTIDGVTRSDQGLYTCAASSGLMTKKNSTFVRVHEKDKTHTCPPCPAPEAAGGPSVFLFPPKPKDTLMISRTPEVTCVVVDVSHEDPEVKFNWYVDGVEVHNAKTKPREEQYNSTYRVVSVLTVCHQDWLNGKEYKCKVSNKALGAPIEKTISKAKGQPREPQVYTLPPSREEMTKNQVSLTCLVKGFYPSDIAVEWESNGQPENNYKTTPPVLDSDGSFFLYSKLTVDKSRWQQGNVFSCSVMHEALHNHYTQKSLDKSTGKPTLYNVSLIMSDTGGTCY", "values": [{"measurement": "Kd", "setting": "hCD64-Biotin [3]", "result": 0.0638, "unit": "nM"}, {"measurement": "koff", "setting": "hCD64-Biotin [3]", "result": 0.000511, "unit": "s⁻¹"}, {"measurement": "kon", "setting": "hCD64-Biotin [3]", "result": "8.01e+06", "unit": "M⁻¹ s⁻¹"}, {"measurement": "binding result", "setting": "hCD16a-Biotin", "result": "no binding (tested: 50 nM (not printed on the sheet))"}, {"measurement": "Kd", "setting": "hFcRn-β2M-Biotin [4]", "result": "< 1", "unit": "pM"}, {"measurement": "koff", "setting": "hFcRn-β2M-Biotin [4]", "result": "< 1e-07", "unit": "s⁻¹"}, {"measurement": "kon", "setting": "hFcRn-β2M-Biotin [4]", "result": 31000, "unit": "M⁻¹ s⁻¹"}]}, {"binder": "Hex-REGN3 (IgG1) Mut1-V2 PVA/P329A (Fc fusion, Hexameric VEGF antagonist designed as six dimers; also called Hex-REGN3 (IgG1) Mut1 PVA/P329A) SDTGRPFVEMYSEIPEIIHMTEGRELVIPCRVTSPNITVTLKKFPLDTLIPDGKRIIWDSRKGFIISNATYKEIGLLTCEATVNGHLYKTNYLTHRQTNTIIDVVLSPSHGIELSVGEKLVLNCTARTELNVGIDFNWEYPSSKHQHKKLVNRDLKTQSGSEMKKFLSTLTIDGVTRSDQGLYTCAASSGLMTKKNSTFVRVHEKDKTHTCPPCPAPPVAGPSVFLFPPKPKDTLMISRTPEVTCVVVDVSHEDPEVKFNWYVDGVEVHNAKTKPREEQYNSTYRVVSVLTVCHQDWLNGKEYKCKVSNKALAAPIEKTISKAKGQPREPQVYTLPPSREEMTKNQVSLTCLVKGFYPSDIAVEWESNGQPENNYKTTPPVLDSDGSFFLYSKLTVDKSRWQQGNVFSCSVMHEALHNHYTQKSLDKSTGKPTLYNVSLVMSDTAGTCY", "values": [{"measurement": "binding result", "setting": "hCD16a-Biotin", "result": "no binding (tested: 50 nM (not printed on the sheet))"}, {"measurement": "binding result", "setting": "hCD64-Biotin [5]", "result": "no binding (tested: 50 nM (not printed on the sheet))"}]}]}
